Reference: the supplement of paper PMC10567573

B1: WSB1 (parent)
chain: DLKDDGNMMKVLRGHQNWVYSCAF

Variants of: B1
Assay: protein stability index of a GFP-peptide fusion (GPS, HEK-293T) (PSI 1-6); higher = more stable
Conditions: c terminus: a fixed tail appended
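Also: lentivirally expressed fusions sorted by FACS into six bins by GFP to DsRed ratio, PSI derived from sequencing read proportions per bin multiplied by bin number.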

Protein stability index: each site, then its substitutions
K3: E 1.9; D 2.57; P 1.07; L 1.83; T 2.65; H 1.93; F 2.12; Q 1.37; C 2.27; N 1.43; W 2.49; S 1.77; G 2.54; R 1.48; A 2.75; Y 1.84; M 2.06
G14: Y 2.35; P 1.91; N 1.26; T 2.39; A 1.33; R 1.29; Q 2.31; S 2; W 1.87; K 2.23; E 1.45; C 2.43; D 1.91; H 1.81; L 2.05
Q16: I 2.04; H 2.75; S 2.54; C 2.3; E 2.36; Y 1.4; L 1.48; A 2.32; P 2.52; V 1.52; K 2.41; D 1.71; F 2.8; T 2.79; M 2.04; N 1.79
K10: Y 2.78; T 1.5; C 2.19; L 2.53; E 1.49; N 1.31; S 1.96; V 2.1; D 1.72; P 2.27; Q 2.02; I 2.34; A 2.38; H 1.96; M 1.55; R 2.4; F 4.7
G6: P 2.28; K 1.75; S 1.92; A 2.03; Q 1.58; E 2.38; V 1.74; Y 1.77; D 1.94; M 1.72; C 2.17; I 2.23; W 3.64; N 2.12; R 1.62; L 1.13
Y20: S 1.83; F 1.66; G 1.97; P 1.84; K 1.39; Q 1.68; E 1.6; D 1.69; R 2.05; T 2.63; C 3.17; A 2.28; W 2.28; H 2.06; M 1.61; V 3.3; L 2.57
S21: Y 3.37; H 2.05; G 2.27; E 1.94; P 2.05; D 2.05; N 1.46; T 1.07; A 2.3; K 1.07; R 1.22
M8: L 1.15; T 1.54; V 1.54; G 2.55; R 2.35; N 2.29; Y 1.39; W 1.09; A 1.83; P 2.44; C 1.38; I 2.03; K 2.15; H 2.34; Q 2.26; S 2.02; D 2.5
M9: H 2.19; L 1.61; K 1.95; A 2.02; I 4.37; S 1.43; F 2.67; V 1.27; E 2.03; T 1.45; R 1.54; N 1.89; Y 1.06; D 1.88; Q 1.73
H15: S 1.88; P 2.65; A 2.26; L 1.78; R 1.91; D 1.49; T 1.92; N 2.81; F 2.4; E 2.75; G 4.54; W 1.94; K 2.24; I 1.96; M 1.46; Q 1.5
N7: I 3.63; Q 1.76; S 1.9; A 1.09; V 2.03; G 2.54; E 1.66; H 1.62; C 1.83; M 3.16; K 2; D 2.58; P 2.54; W 3.11; R 1.71; T 1.47
D1: Y 1.78
D4: T 1.98; F 2.77; L 3.75; C 2.88; W 2.2; R 1.59; H 1.66; P 2.28; E 1.91; G 1.16; Y 2.28; M 2.4; I 2.67; N 3.38; Q 2.63; S 2.42; K 2.29
R13: S 1.53; H 1.46; P 2.02; Q 2.45; E 2.88; T 2.21; Y 2.46; F 1.92; N 2.74; K 1.58; W 3.05; D 1.32; A 1.73; M 2.28
D5: A 2.66; I 2.12; R 3.41; T 3.18; H 1.86; K 1.69; Q 2; G 1.68; E 1.96; Y 2.25; M 3.35; F 3.73; P 3.34; N 2.04
N17: P 1.86; S 1.81; R 2.05; Q 2.95; A 2.33; E 1.68; D 1.94; K 2.1; G 1.78; H 1.26; F 2.34
V19: Y 2.87; S 1.04; A 2.53; K 1.75; Q 2.07; F 1.34; L 2.22; C 2.73; D 2.15; T 1.71; W 2.28; M 2.52; N 1.44; H 2.12; I 2.13; R 2.86; G 2.66; P 2.03
V11: E 2.01; Q 2.62; I 1.59; D 1.93; P 2.31; T 2.41; L 1.63; A 1.75; K 1.57; W 2; G 1.65; Y 2.26; R 1.69; N 1.57; M 2; F 2.64; S 2.79
L2: A 1.47; P 1.82; V 1.29; H 1.68; M 1.65; R 2.05; Q 1.83; G 1.91; N 2.53; C 2.13; F 1.59; K 1.54; I 1.69; S 1.34; T 2.08; E 1.95; Y 1.93; D 2.39
W18: M 2.75; V 1.07; C 2.38; D 1.69; K 1.46; I 2.35; P 1.86; R 1.65; N 2.24; E 2.62; F 1.47; A 2.49; L 2.88; S 2.7; H 2.34; T 2.08; Y 2.09; G 2.21; Q 2.73
L12: H 1.44; D 2.01; T 1.37; G 1.91; Q 1.16; M 1.24; W 2.38; C 2.38; Y 2.74; F 1.67; I 1.49; E 2.27; R 3.69; K 1.85; N 1.5; P 2.2
C22: Q 2.15; H 1.33; G 1.69; L 3.06; E 2.39; N 1.81; A 2.25; M 2.61; K 1.77; S 1.61; T 1.9; F 2.98; P 2.01; D 3.46; I 2.86; R 2.33
